# ± gives the standard deviation of the averaged measurements.
# Tested on: ATP
# Test: switch fluorescence ratio, 500 uM ATP over buffer (Cy3 cluster intensity, sum of 5 cycles each) (fold (ratio)); higher = stronger signal-on switching upon ATP binding; sequences stand for … in TCGTCGGCAGCGTCAGATGTGTATAAGAGACAGTTTTTTTTTTTTTTTTTTTTTTTTT…TC
# Conditions: aptamer strand: ATP DNA aptamer (quencher-CACCTGGGGGAGTATTGCGGAGGAAGG + anchor), 100 nM annealed; ATP concentration: 500 uM
# How it was run: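 For every switch-domain sequence, the fluorescence ratio is the mean of per-cluster values, each being summed target-cycle Cy3 intensity over summed buffer-cycle Cy3 intensity. Clusters outside 100-1000 RFU were excluded. On a modified Illumina MiSeq flow-cell, the Cy3-labelled switching-strand clusters were annealed to 100 nM quencher-labelled ATP aptamer, imaged in selection buffer and then after 15 min with 500 uM ATP at 22 °C. Five such cycles were run, with NaOH stripping and re-annealing between them.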
# 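Also: ATP exposure 15 min at 22 °C before imaging.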
row,Sequence,switch fluorescence ratio
1,TAGGGATGTA,1.01 ± 0.016
2,TAGGGCAACG,1.04 ± 0.025
3,TAGGGCACCC,0.988 ± 0.058
4,TAGGGCAGAG,0.994 ± 0.021
5,TAGGGCCAGC,1.04 ± 0.033
6,TAGGGCCCGG,1.03 ± 0.077
7,TAGGGCGCCG,1.0192 ± 0.00067
8,TAGGGCTCAG,0.9928 ± 0.0098
9,TAGGGCTGGG,0.972 ± 0.048
10,TAGGGGAAGC,0.989 ± 0.031
11,TAGGGGAGAT,1.027 ± 0.0098
12,TAGGGGAGGG,1.03 ± 0.041
13,TAGGGGCACA,1.01 ± 0.033
14,TAGGGGGCTA,0.995 ± 0.027
15,TAGGGGGCTG,1.01 ± 0.02
16,TAGGGGGGAG,0.981 ± 0.024
17,TAGGGGGGGC,0.978 ± 0.022
18,TAGGGGGTAT,1.02 ± 0.019
19,TAGGGGTA,1.01 ± 0.021
20,TAGGGGTAGC,0.985 ± 0.04
21,TAGGGGTGAG,1.04 ± 0.021
22,TAGGGGTGGC,0.956 ± 0.099
23,TAGGGTCACG,0.99721 ± 0.00082
24,TAGGGTCTCA,1 ± 0.031
25,TAGGGTGGG,1.024 ± 0.0028

row,Sequence,switch fluorescence ratio
1,TAGGGTGTGT,0.952 ± 0.016
2,TAGGGTTCAA,0.989 ± 0.02
3,TAGGGTTGGC,0.969 ± 0.013
4,TAGGGTTGGT,1.01 ± 0.046
5,TAGGGTTTTG,1.01 ± 0.042
6,TAGGGTTTTT,1.03 ± 0.038
7,TAGGTAACCG,0.943 ± 0.056
8,TAGGTAGGAG,1 ± 0.031
9,TAGGTAGTGG,1.01 ± 0.027
10,TAGGTATATT,0.97 ± 0.019
11,TAGGTCATAT,1 ± 0.022
12,TAGGTCATGG,0.985 ± 0.011
13,TAGGTCCCTG,0.99 ± 0.042
14,TAGGTCCTGG,0.9888 ± 0.0074
15,TAGGTCTTAA,0.995 ± 0.013
16,TAGGTGAAAC,0.988 ± 0.016
17,TAGGTGCCTT,1.006 ± 0.0053
18,TAGGTGGGAT,1.05 ± 0.038
19,TAGGTTAACT,0.956 ± 0.024
20,TAGGTTACGG,0.984 ± 0.024
21,TAGGTTAGTG,0.951 ± 0.01
22,TAGGTTCTTT,0.995 ± 0.022
23,TAGGTTGTAT,0.978 ± 0.018
24,TAGGTTTAAA,0.991 ± 0.039
25,TAGGTTTCTT,1.01 ± 0.031

row,Sequence,switch fluorescence ratio
1,TAGGTTTGGG,0.962 ± 0.025
2,TAGTAAGGGA,1 ± 0.031
3,TAGTAAGGGC,1.02 ± 0.033
4,TAGTAATCGA,1.02 ± 0.018
5,TAGTACTGCT,1.02 ± 0.015
6,TAGTAGAGCT,1.009 ± 0.002
7,TAGTAGGAGT,1.02 ± 0.035
8,TAGTAGGCCA,1.01 ± 0.055
9,TAGTAGGGTG,1.03 ± 0.036
10,TAGTATGGGT,0.9692 ± 0.0077
11,TAGTATGTGG,0.9612 ± 0.0025
12,TAGTATTACC,0.9943 ± 0.0081
13,TAGTCAGCC,1.01 ± 0.029
14,TAGTCAGGGG,0.9852 ± 0.0041
15,TAGTCATATC,1.01 ± 0.032
16,TAGTCATTAA,1.002 ± 0.0028
17,TAGTCGAGAC,1.01 ± 0.018
18,TAGTCGTTAG,1 ± 0.037
19,TAGTCTACGA,1.03 ± 0.026
20,TAGTCTATCG,0.969 ± 0.025
21,TAGTGAAAGA,0.9855 ± 0.0031
22,TAGTGCAATA,1.6994 ± 0.00043
23,TAGTGCGCGC,1.03 ± 0.025
24,TAGTGCTGCA,0.9692 ± 0.0012
25,TAGTGGACTC,1.02 ± 0.034

row,Sequence,switch fluorescence ratio
1,TAGTGGAGTG,1 ± 0.011
2,TAGTGGCCTG,0.955 ± 0.023
3,TAGTGGGCTG,0.972 ± 0.025
4,TAGTGGGGTG,0.969 ± 0.01
5,TAGTGGGTGG,0.989 ± 0.01
6,TAGTGGTGGA,0.9979 ± 0.009
7,TAGTGGTTT,0.986 ± 0.024
8,TAGTTACACG,1.01 ± 0.025
9,TAGTTATCGT,1.01 ± 0.027
10,TAGTTATGAA,1.01 ± 0.016
11,TAGTTATTA,0.989 ± 0.026
12,TAGTTCTCTT,0.989 ± 0.026
13,TAGTTGAGTG,0.987 ± 0.037
14,TAGTTGGTTT,0.999 ± 0.037
15,TAGTTTGAAT,1.01 ± 0.024
16,TAGTTTTACC,1 ± 0.013
17,TAGTTTTCAT,1.021 ± 0.01
18,TAGTTTTCGC,1 ± 0.031
19,TAGTTTTTCG,1 ± 0.025
20,TATAAAAAAT,1 ± 0.028
21,TATAAAAATC,1.07 ± 0.084
22,TATAAATAGT,0.96 ± 0.046
23,TATAACGGTT,1.034 ± 0.0074
24,TATAACTCAT,1.02 ± 0.029
25,TATAAGGGCG,0.976 ± 0.058

row,Sequence,switch fluorescence ratio
1,TATAAGGGGT,0.9862 ± 0.0083
2,TATAAGTAGG,0.968 ± 0.028
3,TATAAGTGAT,1.17 ± 0.26
4,TATAATAGTA,1.0013 ± 0.001
5,TATAATATAT,1 ± 0.029
6,TATAATCCTG,0.992 ± 0.035
7,TATAATGGCT,0.9555 ± 0.0054
8,TATAATGGGC,0.965 ± 0.031
9,TATAATGTGC,1.04 ± 0.012
10,TATAATTCTA,0.9844 ± 0.0075
11,TATAATTCTG,1.04 ± 0.029
12,TATACGCGCC,1.12 ± 0.083
13,TATACGGAAT,1.16 ± 0.051
14,TATACGGGTG,1.073 ± 0.0046
15,TATACGTCTA,1.07 ± 0.043
16,TATACGTGCC,1.03 ± 0.025
17,TATACTACGG,1.09 ± 0.024
18,TATACTTGGC,1.07 ± 0.059
19,TATAGCATGT,1.038 ± 0.007
20,TATAGCGCTT,0.9905 ± 0.0035
21,TATAGCTAAT,1.027 ± 0.0041
22,TATAGGAAAA,1.35 ± 0.61
23,TATAGGATTT,1 ± 0.08
24,TATAGGGAGG,0.988 ± 0.027
25,TATAGGGGGG,1 ± 0.017

row,Sequence,switch fluorescence ratio
1,TATAGGTTTT,1 ± 0.081
2,TATAGTACGG,1.049 ± 0.0095
3,TATAGTGGTC,0.971 ± 0.035
4,TATAGTTGTT,0.992 ± 0.018
5,TATATACTGT,1.02 ± 0.03
6,TATATCAGGT,1.018 ± 0.0066
7,TATATCGGGG,0.992 ± 0.03
8,TATATCGGGT,0.9968 ± 0.0072
9,TATATCTTTT,1.04 ± 0.026
10,TATATGAGAC,1.003 ± 0.0083
11,TATATGAGGG,1 ± 0.057
12,TATATGATGA,0.996 ± 0.015
13,TATATGATTA,0.973 ± 0.016
14,TATATGCCGT,1.02 ± 0.066
15,TATATGGGAA,0.998 ± 0.029
16,TATATGGGGG,0.981 ± 0.026
17,TATATGGTCC,0.9841 ± 0.0083
18,TATATGTAAT,1.01 ± 0.038
19,TATATTAAAG,0.976 ± 0.015
20,TATATTACCA,1.01 ± 0.051
21,TATATTCAGT,1.02 ± 0.0099
22,TATATTGGGG,0.991 ± 0.018
23,TATATTTCTG,0.986 ± 0.019
24,TATATTTGTA,0.979 ± 0.024
25,TATCACTTCC,1.96 ± 0.023

row,Sequence,switch fluorescence ratio
1,TATCAGCATG,1.01 ± 0.033
2,TATCAGTTGT,1.03 ± 0.013
3,TATCATGAG,1 ± 0.033
4,TATCCAAGTT,0.999 ± 0.013
5,TATCCGTGGG,0.973 ± 0.051
6,TATCCTTAGG,1.01 ± 0.059
7,TATCCTTTGT,1.22 ± 0.2
8,TATCGAAAAA,0.967 ± 0.054
9,TATCGAAATT,0.981 ± 0.021
10,TATCGATGTT,1.005 ± 0.0099
11,TATCGGACTG,1.01 ± 0.13
12,TATCGGATAA,0.9947 ± 0.0037
13,TATCGGGACT,0.9751 ± 0.006
14,TATCGGGTCG,1.12 ± 0.13
15,TATCGGTCTT,0.9224 ± 0.0088
16,TATCGGTTGG,1.044 ± 0.0086
17,TATCGGTTGT,1.03 ± 0.015
18,TATCGTTGTT,1 ± 0.021
19,TATCTACTGG,1.0076 ± 0.00035
20,TATCTATGGG,0.983 ± 0.047
21,TATCTATGTA,1.01 ± 0.02
22,TATCTGGGGT,1.02 ± 0.025
23,TATCTGGGTA,0.978 ± 0.01
24,TATCTGTTGT,0.967 ± 0.033
25,TATCTTATTT,0.9874 ± 0.0093

row,Sequence,switch fluorescence ratio
1,TATCTTTTTT,0.98 ± 0.024
2,TATGAAATGT,1.01 ± 0.033
3,TATGAAGACG,1.12 ± 0.064
4,TATGAAGAGG,0.994 ± 0.033
5,TATGAAGCCC,1.02 ± 0.039
6,TATGAATCCG,1 ± 0.063
7,TATGACATTA,1.025 ± 0.0026
8,TATGACGACG,1.04 ± 0.045
9,TATGACGGGG,0.962 ± 0.014
10,TATGACTTTG,1.03 ± 0.071
11,TATGAGATAG,0.982 ± 0.021
12,TATGAGATTT,0.955 ± 0.026
13,TATGAGGATC,1.01 ± 0.039
14,TATGAGGATT,0.9749 ± 0.0023
15,TATGAGGGCT,1.04 ± 0.012
16,TATGAGTCGA,1 ± 0.019
17,TATGATCTGT,0.979 ± 0.021
18,TATGATGGGG,0.963 ± 0.035
19,TATGATTTGG,0.976 ± 0.031
20,TATGCAGGGA,1.16 ± 0.29
21,TATGCATGTG,0.996 ± 0.015
22,TATGCCATTT,1.0337 ± 0.00046
23,TATGCGGCTT,0.988 ± 0.04
24,TATGCGGGGG,1.02 ± 0.046
25,TATGGAATGG,0.997 ± 0.046

# Source: the supplement of paper PMC10126150
